Results published in patent publication EP2056867B1.

Experiments:
scavenger receptor CD36 [1] = assay: flow cytometry on CD36-transfected CHO cells, rAv17 at 2.5 µg/ml; detected with an anti-cystatin mAb and a FITC secondary antibody; baseline 20%
scavenger receptor CD36 [2] = assay: flow cytometry on CD36-transfected CHO cells, rAv17 at 5 µg/ml; detected with an anti-cystatin mAb and a FITC secondary antibody; baseline 20%

**Q.** For “recombinant Acanthocheilonema viteae cystatin (rAv17)”, which fluorescence positive cells (scavenger receptor CD36 [1]) is on record?
**A.** 71%

**Q.** And the fluorescence positive cells (scavenger receptor CD36 [2])?
**A.** 89%
